Where two headings read alike, the source gives them in different places.

Series [1] can be described thus: Ex vivo biodistribution in SCID/beige mice bearing DU145-PSMA+ xenograft tumors. Conditions: male, SCID/beige, mouse, in vivo, iv, total radioactivity. As to the method: (§1) All animal experiments were ethically reviewed by an Animal Welfare and Ethical Review Board at either King’s College London or Barts Cancer Institute and were performed in accordance with the Animals (Scientific Procedures) Act 1986 U.K. Home Office regulations governing animal experimentation. Subcutaneous prostate cancer DU145-PSMA+ or DU145 xenografts were produced in SCID/beige mice (male, 7–12 wk old). Subcutaneous LNCaP prostate cancer xenografts were produced in athymic nude mice (Crl:NU(NCr)-Foxn1^nu, male, 6–7 wk old). SPECT/CT and biodistribution studies using ^99mTc and ^188Re radiotracers were performed once a tumor had reached an appropriate size (supplemental materials).
(§2) The biodistributions of [^99mTc]Tc-DP1-PSMAt and [^99mTc]Tc-DP2-PSMAt were assessed in male SCID/beige mice bearing DU145-PSMA+ xenograft tumors (Fig. 3). Each mouse was administered either [^99mTc]Tc-DP1-PSMAt or [^99mTc]Tc-DP2-PSMAt and euthanized at 2 h after injection (n = 5), followed by organ harvesting for ex vivo radioactivity counting.
(§3) FIGURE 3. (A) Biodistribution (2 h after injection) of SCID/beige mice bearing DU145-PSMA+ prostate cancer tumors, administered either ^99mTc or ^188Re radiotracers intravenously. To assess specificity of radiotracer uptake, additional groups of mice were also coadministered radiotracer and PMPA (Supplemental Tables 3 and 4). (B) Whole-body SPECT/CT maximum-intensity projections of SCID/beige mice bearing either DU145-PSMA+ tumors or DU145 tumors, administered either [^99mTc]Tc-DP1-PSMAt or [^99mTc]Tc-DP2-PSMAt, 2 h after injection. To inhibit uptake in DU145-PSMA+ tumors, animals were also coadministered PMPA.
(§4) To assess the specificity of each radiotracer, separate groups of animals, also bearing DU145-PSMA+ tumors, were coadministered either [^99mTc]Tc-DP1-PSMAt and PMPA or [^99mTc]Tc-DP2-PSMAt and PMPA to inhibit PSMA-mediated uptake of radiotracer (n = 5). […] For [^99mTc]Tc-DP1-PSMAt, coadministration decreased uptake to 0.91 ± 0.29 %ID/g in tumors (compared with administration of [^99mTc]Tc-DP1-PSMAt only: mean difference of 17.12 %ID/g, P = 4 × 10^−4). For [^99mTc]Tc-DP2-PSMAt, coadministration decreased uptake to 0.76 ± 0.45 %ID/g in tumors (compared with administration of [^99mTc]Tc-DP2-PSMAt only: mean difference of 28.62 %ID/g, P = 5 × 10^−4).

A short description of another series: in vivo. The arrangement: species or system mice. Conditions: male, SCID/beige, mouse, total radioactivity. As to the method: as §1
Additionally, groups of mice bearing non–PSMA-expressing parental DU145 tumors were also administered these ^99mTc radiotracers. For these groups, tumor uptake of [^99mTc]Tc-DP1-PSMAt decreased to 0.24 ± 0.07 %ID/g, and tumor uptake of [^99mTc]Tc-DP2-PSMAt decreased to 0.18 ± 0.07 %ID/g (Supplemental Fig. 3).

Series [2] in a line: Ex vivo biodistribution in athymic nude mice bearing LNCaP xenografts. Conditions: male, athymic nude (Crl:NU(NCr)-Foxn1^nu), mouse, total radioactivity. The method, then:
as §1
With a view to developing a molecular [^188Re]Re-labeled agent for PSMA PRRT, we further characterized the biodistribution profiles of [^188Re]Re-DP1-PSMAt and [^188Re]Re-DP2-PSMAt in male athymic nude mice bearing LNCaP xenografts (Fig. 4), which recapitulate clinical metastatic prostate cancer more closely than DU145-PSMA+ xenografts. […] In mice administered [^188Re]Re-DP1-PSMAt, LNCaP tumor uptake measured 7.0 ± 2.3 %ID/g at 2 h after injection and 2.9 ± 0.8 %ID/g at 24 h after injection. For [^188Re]Re-DP2-PSMAt, LNCaP tumor uptake measured 9.8 ± 2.8 %ID/g at 2 h after injection and 7.6 ± 4.4 %ID/g at 24 h after injection.
FIGURE 4. (A–C) Biodistribution of ^188Re in athymic nude mice bearing LNCaP prostate cancer tumors, administered either [^188Re]Re-DP1-PSMAt or [^188Re]Re-DP2-PSMAt at 2 h after injection (A), at 24 h after injection (B), and at 2 h after injection (C) with coadministration of Gelofusine. (D) Additionally, biodistributions of [^99mTc]Tc-DP1-PSMAt and [^99mTc]Tc-DP2-PSMAt at 2 h after injection were measured (Supplemental Tables 5–8). GI = gastrointestinal tract.

Series [3] deals with DU145-PSMA+ prostate cancer cells (DU145 cells transfected to express PSMA receptor). Put plainly: Radiotracer uptake in DU145-PSMA+ prostate cancer cells. The class given is cell-based. The settings on record: 37°C; for uptake in DU145-PSMA+ cells: 100 kBq radiotracer, 1 h incubation, percentage added radioactivity, mean ± SD, n = 3–4 biologic repeats in triplicate; for uptake in DU145-PSMA+ cells with PMPA block: coincubated with PSMA inhibitor PMPA, 1 h. The method, then:
(§5) Solutions containing radiotracer (100 kBq in 8–12 μL of phosphate-buffered saline, >95% radiochemical purity) were added to DU145-PSMA+ or LNCaP prostate cancer cells ([22]), and the cells were incubated at 37°C for 1 h. Nonspecific uptake was determined using non–PSMA-expressing cells (DU145, PC3) or by blocking PSMA-expressing cells (DU145-PSMA+, LNCaP) with 2-phosphonomethyl pentanedioic acid (PMPA). After incubation, the cells were washed and samples collected for radioactivity counting. Uptake and localization of ^99mTc radiotracers were measured over time (15, 30, 60, and 120 min) in DU145-PSMA+ or LNCaP cells (supplemental materials).
(§6) To assess the specificity of the new radiotracers for PSMA, [^99mTc]Tc-DP1-PSMAt and [^99mTc]Tc-DP2-PSMAt (100 kBq) were each incubated with DU145-PSMA+ prostate cancer cells (DU145 cells transfected to express PSMA receptor) ([22]). After 1 h of incubation, uptake of each radiotracer was quantified. […] In LNCaP cells, uptake of [^99mTc]Tc-DP1-PSMAt and [^99mTc]Tc-DP2-PSMAt measured 3.7 ± 1.2 %AR and 3.0 ± 0.8 %AR, respectively, whereas uptake of both radiotracers in PC3 cells measured less than 0.3 %AR.
(§7) FIGURE 2. (A) Uptake of radiotracers in PSMA-positive and PSMA-negative prostate cancer cells. (B) Time course uptake and localization of ^99mTc radiotracers in DU145-PSMA cells and LNCaP cells. Data are presented as mean ± SD; n = 3–4 biologic repeats performed in triplicate.

Series [4] relates to LNCaP prostate cancer cells, which natively express PSMA. Put plainly: Radiotracer uptake in LNCaP prostate cancer cells. Format: cell-based. Conditions: 37°C; for uptake in LNCaP cells: 100 kBq radiotracer, 1 h incubation, percentage added radioactivity, mean ± SD, n = 3–4 biologic repeats in triplicate; for uptake in LNCaP cells with PMPA block: blocked with PMPA, 1 h. The method, then:
as §5, §6, §7

The test system of series [5] is parental DU145 cells that do not express PSMA. Put plainly: Radiotracer uptake in parental DU145 cells (non-PSMA-expressing). Format: cell-based. Conditions: 100 kBq, 1 h, 37°C. The method, then: as §5, §6, §7
The subject of the next series is PC3 cells. Put plainly: Radiotracer uptake in PC3 cells (non-PSMA-expressing). Format: cell-based. Conditions: 100 kBq, 1 h, 37°C; cells do not express PSMA. The method, then:
as §5, §6, §7

The subject of series [6] is DU145-PSMA+ xenograft tumors. Put plainly: Ex vivo biodistribution in SCID/beige mice bearing DU145-PSMA+ xenograft tumors. Conditions: for effect of PMPA coadministration on spleen uptake (in words) / effect of PMPA coadministration on tumor uptake (in words): SCID/beige mice bearing DU145-PSMA+ tumors, 2 h after injection; for radioactivity concentration in DU145-PSMA+ tumors: male, SCID/beige, mouse, in vivo, iv, 2 h. As to the method: as §1, §2, §3, §4

Where [7] appears, read: SCID/beige mice bearing DU145-PSMA+ tumors, 2 h after injection, read-out: radioactivity concentration in kidneys.
Where [8] appears, read: SCID/beige mice, 2 h after injection, PMPA coadministered, n = 5, read-out: DU145-PSMA+ tumor uptake with coadministration of PMPA.
Setting [9] is: SCID/beige mice, 2 h after injection, PMPA coadministered, read-out: radioactivity concentration in spleen with PMPA.
The mark [10] stands for this setting: radioactivity concentration in DU145-PSMA+ tumors.
The mark [11] stands for this setting: radioactivity concentration in spleen.
Where [12] appears, read: athymic nude mice bearing LNCaP tumors, 2 h after injection, Gelofusine coadministered, read-out: kidney retention with coadministration of Gelofusine.
[13] abbreviates: athymic nude mice bearing LNCaP tumors, 2 h after injection, read-out: concentration in kidneys at 2 h.
The mark [14] stands for this setting: athymic nude mice bearing LNCaP tumors, 24 h after injection, read-out: concentration in kidneys at 24 h.

For the molecule `O=C(O)CC[C@H](NC(=O)N[C@@H](CCCCNC(=O)CCOCCOCCOCCOCCNC(=O)/C(=C(\C(=O)O)P(c1ccccc1)c1ccccc1)P(c1ccccc1)c1ccccc1)C(=O)O)C(=O)O` [[^99mTc]Tc-DP1-PSMAt, metal not drawn], the tissue uptake at 2 h in series [1] (setting [7]) came to 116 ± 27.3 %ID/g; in series [1] (setting [8]) it was 0.91 ± 0.29 %ID/g; in series [1] (SCID/beige mice, 2 h after injection, PMPA coadministered, read-out: radioactivity concentration in kidneys with PMPA), 38 ± 2.9 %ID/g; in series [1] (setting [9]) it was 0.2 ± 0.06 %ID/g; in series [1] (setting [10]), 18 ± 3.5 %ID/g; in series [1] (setting [11]), 12 ± 5.3 %ID/g. Besides, the tissue uptake at 2 h in the series “in vivo” stood at 0.24 ± 0.07 %ID/g.
As to `Cc1ccc(P(/C(C(=O)O)=C(/C(=O)NCCOCCOCCOCCOCCC(=O)NCCCC[C@H](NC(=O)N[C@@H](CCC(=O)O)C(=O)O)C(=O)O)P(c2ccc(C)cc2)c2ccc(C)cc2)c2ccc(C)cc2)cc1` [[^99mTc]Tc-DP2-PSMAt, metal not drawn], the tissue uptake at 2 h in series [1] (setting [7]) worked out at 183 ± 23.8 %ID/g; in series [1] (setting [8]) it was 0.76 ± 0.45 %ID/g; in series [1] (setting [9]), 0.3 ± 0.18 %ID/g; in series [1] (setting [10]), 29.4 ± 6.3 %ID/g; in series [1] (setting [11]), 7.7 ± 3.4 %ID/g; in “in vivo” it was 0.18 ± 0.07 %ID/g.
For the molecule `O=C(O)CC[C@H](NC(=O)N[C@@H](CCCCNC(=O)CCOCCOCCOCCOCCNC(=O)/C(=C(\C(=O)O)P(c1ccccc1)c1ccccc1)P(c1ccccc1)c1ccccc1)C(=O)O)C(=O)O` [[^188Re]Re-DP1-PSMAt, metal not drawn], the tissue uptake at 2 h in series [2] amounted to 7 ± 2.3 %ID/g; in series [2] (setting [12]), 109 ± 13.3 %ID/g; in series [2] (setting [13]), 137 ± 34.6 %ID/g. The tissue uptake at 24 h in series [2] amounted to 2.9 ± 0.8 %ID/g; in series [2] (setting [14]), 29.4 ± 4.9 %ID/g.
For `O=C(O)CC[C@H](NC(=O)N[C@@H](CCCCNC(=O)CCOCCOCCOCCOCCNC(=O)/C(=C(\C(=O)O)P(c1ccccc1)c1ccccc1)P(c1ccccc1)c1ccccc1)C(=O)O)C(=O)O` [[^188Re]Re-DP1-PSMAt] [metal not drawn], in series [3], the “uptake in DU145-PSMA+ cells” value is recorded as 13.5 ± 2.7 %AR and the “uptake in DU145-PSMA+ cells with PMPA block” value is given as “could be blocked with PMPA”. Also, in series [4], the “uptake in LNCaP cells” value is 2.8 ± 1.6 %AR and the “uptake in LNCaP cells with PMPA block” value was “could be blocked with PMPA”. Moreover, in series [5], the “uptake in parental DU145 cells” value is on record as “negligible uptake”. Besides, the “uptake in PC3 cells (in words)” value in the series on PC3 cells was “negligible uptake”. In addition, in series [6], the “effect of PMPA coadministration on spleen uptake (in words)” value is “significantly inhibited uptake”, the “effect of PMPA coadministration on tumor uptake (in words)” value was “significantly inhibited uptake” and the “radioactivity concentration in DU145-PSMA+ tumors” value is 27.7 ± 6.4 %ID/g.
Turning to `Cc1ccc(P(/C(C(=O)O)=C(/C(=O)NCCOCCOCCOCCOCCC(=O)NCCCC[C@H](NC(=O)N[C@@H](CCC(=O)O)C(=O)O)C(=O)O)P(c2ccc(C)cc2)c2ccc(C)cc2)c2ccc(C)cc2)cc1` [[^188Re]Re-DP2-PSMAt, metal not drawn], the tissue uptake at 2 h in series [2] is 9.8 ± 2.8 %ID/g; in series [2] (setting [12]), 128 ± 17.7 %ID/g; in series [2] (setting [13]), 163 ± 31.8 %ID/g. The tissue uptake at 24 h was determined as 7.6 ± 4.4 %ID/g in series [2] and 37 ± 12.2 %ID/g in series [2] (setting [14]).
For `Cc1ccc(P(/C(C(=O)O)=C(/C(=O)NCCOCCOCCOCCOCCC(=O)NCCCC[C@H](NC(=O)N[C@@H](CCC(=O)O)C(=O)O)C(=O)O)P(c2ccc(C)cc2)c2ccc(C)cc2)c2ccc(C)cc2)cc1` [[^188Re]Re-DP2-PSMAt] [metal not drawn], in series [3], the “uptake in DU145-PSMA+ cells” value is 8.3 ±0.7 %AR and the “uptake in DU145-PSMA+ cells with PMPA block” value is given as “could be blocked with PMPA”. In addition, in series [4], the “uptake in LNCaP cells” value amounted to 2.6 ± 1.6 %AR and the “uptake in LNCaP cells with PMPA block” value is listed as “could be blocked with PMPA”. Moreover, the “uptake in parental DU145 cells” value in series [5] is reported as “negligible uptake”. For the same molecule, the “uptake in PC3 cells (in words)” value with PC3 cells is on record as “negligible uptake”. In addition, in series [6], the “effect of PMPA coadministration on spleen uptake (in words)” value was “significantly inhibited uptake”, the “effect of PMPA coadministration on tumor uptake (in words)” value is recorded as “significantly inhibited uptake” and the “radioactivity concentration in DU145-PSMA+ tumors” value amounted to 19.2 ± 8.6 %ID/g.
